From patent publication US20230218710A1 (COHBAR, published 2023)
Square brackets hold non-standard residues; d marks the D form. Primed or numbered codes have the meaning given here. Ends that are not written are not given here. PEG12′ = not defined here

T1: Apelin Receptor (APJ) stably overexpressed in CHO-K1 AGTRL1 Gi cells (UniProt P35414 1-380, limits assumed)
T1 sequence (looked up): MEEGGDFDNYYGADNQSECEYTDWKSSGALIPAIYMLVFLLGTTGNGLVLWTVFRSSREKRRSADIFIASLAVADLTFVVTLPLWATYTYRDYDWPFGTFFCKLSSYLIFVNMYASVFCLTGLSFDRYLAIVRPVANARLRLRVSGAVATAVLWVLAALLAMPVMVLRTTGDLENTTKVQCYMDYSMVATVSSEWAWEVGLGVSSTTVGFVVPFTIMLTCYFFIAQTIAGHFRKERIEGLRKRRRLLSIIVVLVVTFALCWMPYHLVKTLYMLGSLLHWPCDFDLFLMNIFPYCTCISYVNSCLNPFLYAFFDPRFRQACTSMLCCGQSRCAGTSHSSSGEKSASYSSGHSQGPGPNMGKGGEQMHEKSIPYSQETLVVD


What follows are binders tested against ProLink tagged human APJ (Apelin Receptor) in CHO-K1 AGTRL1 β-Arrestin cells (human, UniProt P35414 1-380) (assay: cell-based or functional assay).

Going from MMGMVFQSLCG[dA] [SEQ ID NO: 49] to RMMGMVFQ [SEQ ID NO: 51], the “β-Arrestin recruitment, Percent of Apelin-13 Control Activity (10 µM peptide)” value (from here on “β-Arrestin recruitment, Percent”) falls from 1% to 0%.

Going from RRMMGMVAQCLCG[dA] (cysteine pairing not given here) [SEQ ID NO: 11] to RRMMGMVEQCLCG[dA] (cysteine pairing not given here) [SEQ ID NO: 12], the “β-Arrestin recruitment, Percent” value falls from 0% to -1%.

Going from MRRMMGMVFQCLCGL [SEQ ID NO: 7] to MMGMVFQSL [SEQ ID NO: 48], the “β-Arrestin recruitment, Percent” value falls from 91% to 1%.

First: MMGMVFQS [SEQ ID NO: 47]
Second: RMMGMVF [SEQ ID NO: 50]
The “β-Arrestin recruitment, Percent” value of the first is higher: 1% for the first, 0% for the second.

Going from [PEG12′]KRRIIGIVFQCLCG[dA] (cysteine pairing not given here) [SEQ ID NO: 42] to KRRMMGMVFQSLCGA ((PEG12) at the N-terminal K; C-terminal (dA) = D-alanine) [SEQ ID NO: 36], the “β-Arrestin recruitment, Percent” value rises from 8% to 63%.

First: RRMMGMVFQSLCG[dA] (also: acetate salt, HCl salt) [SEQ ID NO: 15]
Second: MMGMVFQ [SEQ ID NO: 46]
The “β-Arrestin recruitment, Percent” value of the first is higher: 40% for the first, 0% for the second.

Compared with RRMMGMVFQCLEG[dA] [SEQ ID NO: 14], KRRLLGLVFQSLCGA ((PEG12) at the N-terminal K; C-terminal (dA) = D-alanine) [SEQ ID NO: 37] is higher in “β-Arrestin recruitment, Percent” value: 0% for the first, 12% for the second.

In the case of RRMMGMVFQELCG[dA] [SEQ ID NO: 13], the “β-Arrestin recruitment, Percent” value is reported as 1%.

The binders below were run against T1, Apelin Receptor (APJ) stably … (assay: cell-based or functional assay).

Going from MRRMMGMVFQCLCGL [SEQ ID NO: 7] to RRIIGIVFQSLCG[dA] [SEQ ID NO: 43], the “IC50 (M), inhibition of forskolin-stimulated cAMP accumulation” value (“IC50 (M), inhibition” for short) rises from 1.24e-06 M to 2.07e-06 M (1.7-fold).

First: [PEG12′]KRRIIGIVFQCLCG[dA] (cysteine pairing not given here) [SEQ ID NO: 42]
Second: KRRMMGMVFQSLCGA ((PEG12) at the N-terminal K; C-terminal (dA) = D-alanine) [SEQ ID NO: 36]
The “IC50 (M), inhibition” value of the first is 2.7-fold higher: 4.38e-06 M for the first, 1.6e-06 M for the second.

Compared with RRMMGMVFQSLCG[dA] (also: acetate salt, HCl salt) [SEQ ID NO: 15], KRRLLGLVFQSLCGA ((PEG12) at the N-terminal K; C-terminal (dA) = D-alanine) [SEQ ID NO: 37] is 1.8-fold lower in “IC50 (M), inhibition” value: 4.49e-06 M for the first, 2.5e-06 M for the second.

Biological target: T1, Apelin Receptor (APJ) stably …
Assay: cell-based or functional assay
Remark: another data set of the same source

Compared with MMGMVFQSLCG[dA] [SEQ ID NO: 49], RMMGMVFQ [SEQ ID NO: 51] is higher in “inhibition of forskolin-induced cAMP, Percent of Pyr-Apelin-13 Control Activity (10 µM peptide)” value: 14% for the first, 24% for the second.

First: RRMMGMVAQCLCG[dA] (cysteine pairing not given here) [SEQ ID NO: 11]
Second: RRMMGMVEQCLCG[dA] (cysteine pairing not given here) [SEQ ID NO: 12]
The “inhibition of forskolin-induced cAMP, Percent of Pyr-Apelin-13 Control Activity (10 µM peptide)” value of the first is higher: 49% for the first, 24% for the second.

First: MRRMMGMVFQCLCGL [SEQ ID NO: 7]
Second: MMGMVFQSL [SEQ ID NO: 48]
The “inhibition of forskolin-induced cAMP, Percent of Pyr-Apelin-13 Control Activity (10 µM peptide)” value of the first is higher: 109% for the first, 15% for the second.

Going from MMGMVFQS [SEQ ID NO: 47] to RMMGMVF [SEQ ID NO: 50], the “inhibition of forskolin-induced cAMP, Percent of Pyr-Apelin-13 Control Activity (10 µM peptide)” value rises from -6% to 8%.

First: [PEG12′]KRRIIGIVFQCLCG[dA] (cysteine pairing not given here) [SEQ ID NO: 42]
Second: KRRMMGMVFQSLCGA ((PEG12) at the N-terminal K; C-terminal (dA) = D-alanine) [SEQ ID NO: 36]
The “inhibition of forskolin-induced cAMP, Percent of Pyr-Apelin-13 Control Activity (10 µM peptide)” value of the first is lower: 33% for the first, 101% for the second.

First: RRMMGMVFQSLCG[dA] (also: acetate salt, HCl salt) [SEQ ID NO: 15]
Second: MMGMVFQ [SEQ ID NO: 46]
The “inhibition of forskolin-induced cAMP, Percent of Pyr-Apelin-13 Control Activity (10 µM peptide)” value of the first is higher: 105% for the first, 11% for the second.

Going from RRMMGMVFQCLEG[dA] [SEQ ID NO: 14] to KRRLLGLVFQSLCGA ((PEG12) at the N-terminal K; C-terminal (dA) = D-alanine) [SEQ ID NO: 37], the “inhibition of forskolin-induced cAMP, Percent of Pyr-Apelin-13 Control Activity (10 µM peptide)” value rises from 39% to 53%.

With RRMMGMVFQELCG[dA] [SEQ ID NO: 13] the “inhibition of forskolin-induced cAMP, Percent of Pyr-Apelin-13 Control Activity (10 µM peptide)” value was 49%.
